Kd data for one molecule are collected here from article PMC2919099.

The target in this data set is T1, DRH-3 (Caenorhabditis elegans (N2), UniProt Q93413 1-1119).
T1 sequence: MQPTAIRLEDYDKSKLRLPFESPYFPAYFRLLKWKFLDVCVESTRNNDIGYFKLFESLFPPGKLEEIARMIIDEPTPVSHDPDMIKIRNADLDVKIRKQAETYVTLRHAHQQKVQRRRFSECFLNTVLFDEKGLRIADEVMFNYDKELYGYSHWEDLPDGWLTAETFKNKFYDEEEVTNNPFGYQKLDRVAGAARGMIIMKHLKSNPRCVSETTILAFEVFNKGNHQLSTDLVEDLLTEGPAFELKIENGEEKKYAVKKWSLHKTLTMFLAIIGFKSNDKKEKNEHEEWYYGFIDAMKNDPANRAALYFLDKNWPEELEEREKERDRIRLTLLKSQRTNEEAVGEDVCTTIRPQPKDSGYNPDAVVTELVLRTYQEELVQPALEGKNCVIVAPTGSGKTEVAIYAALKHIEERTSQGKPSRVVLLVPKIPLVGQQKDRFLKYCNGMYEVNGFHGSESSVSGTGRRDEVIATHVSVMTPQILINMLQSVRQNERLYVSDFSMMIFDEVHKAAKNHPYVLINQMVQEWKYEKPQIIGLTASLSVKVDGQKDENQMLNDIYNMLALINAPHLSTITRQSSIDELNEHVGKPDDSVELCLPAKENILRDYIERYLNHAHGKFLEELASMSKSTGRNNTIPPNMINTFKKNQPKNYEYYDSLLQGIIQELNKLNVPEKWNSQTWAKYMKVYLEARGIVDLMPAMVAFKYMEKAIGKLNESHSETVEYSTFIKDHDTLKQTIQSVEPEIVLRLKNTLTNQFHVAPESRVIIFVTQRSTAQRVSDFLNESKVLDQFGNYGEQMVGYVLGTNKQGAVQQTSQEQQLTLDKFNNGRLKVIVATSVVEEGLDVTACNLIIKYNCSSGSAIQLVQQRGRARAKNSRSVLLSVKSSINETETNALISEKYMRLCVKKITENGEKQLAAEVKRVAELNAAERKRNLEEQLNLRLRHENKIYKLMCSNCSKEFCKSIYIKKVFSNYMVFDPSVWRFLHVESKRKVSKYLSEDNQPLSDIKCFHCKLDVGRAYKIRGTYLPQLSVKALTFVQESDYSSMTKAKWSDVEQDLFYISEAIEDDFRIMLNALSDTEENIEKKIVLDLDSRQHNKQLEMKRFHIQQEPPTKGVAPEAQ
Description: EMSA. (In general: A gel shift assay detects complexes by their altered migration in electrophoresis.)

B1: ds25 RNA (25 bp) (dsRNA)
RNA 1: GGGUAUAGACUGACUAGGAUCUCCC
RNA 2: GGGAGAUCCUAGUCAGUCUAUACCC
By Kd is commonly meant the equilibrium constant for the complex coming apart. Read a high Kd as lower affinity. As for B1, binding was put at a Kd of 11 nM.
